The results in this text go back to patent US10093741 (FUSION PHARMACEUTICALS, dated 2018).

Experiment [1] deals with T1, insulin-like growth factor-1 receptor (IGF-1R) (human, UniProt P08069 31-1367). Kind of experiment: cell-based or functional assay.
The target of experiment [2] is T1, insulin-like growth factor-1 receptor …. The experiment in a line: cell-based or functional assay. This is another data set of the same source.
Experiment [3] has the same target. Kind of experiment: saturation radioligand binding on IGF-1R expressing A431 cells, 4 °C, specific binding fitted to single-site model. Here is the method:
The purpose of this assay was to ensure that these new radioconjugates maintained binding characteristics consistent with the native antibody in an IGF-1R expressing A431 cell line. Twenty-four hours prior to the start of the experiment, 1.5×10^5 A431 cells were seeded in 48-well microplates in 500 μl supplemented medium. The radioconjugate was diluted with binding buffer (PBS+0.5% BSA) to a range of concentrations from 0.08 nM to 40 nM; final assay concentration 0.04 to 20 nM. At the start of the assay, the media is aspirated, discarded and 500 μl of serum-free DMEM was added to each well. The plates were incubated at 37° C. for 1 hour. Following incubation, media was aspirated from each well and discarded. The cells were washed and 100 μl of binding buffer (total binding assay) or, for non-specific binding assay, 4 μM cold-antibody was added to designated wells. Plates were incubated at 4° C. for 1 hour with mild shaking. Following the blocking step, 100 μl of radioimmunoconjugate was added to each well. The plates were then incubated at 4° C. for 2 hours. Following incubation, the contents of each well was aspirated and discarded. The cells were washed twice with PBS and were then lysed with 1% Triton-X-100. The lysates were transferred to counting tubes and run with radioconjugate standards on the Wizard 1470 gamma counter to determine the radioactivity content (in counts per minute (CPM)) for each lysate. The remaining lysate from each well (25 μl) was transferred to a 96-well plate, and the protein content of each lysate determined using a standard protein quantification assay. Total, non-specific and specific ligand binding determinations, mass of bound conjugate in each lysate were calculated by converting lysate CPM to fmol bound using the specific activity of the conjugate standards and then normalizing the fmol bound to the protein content of each lysate (in milligrams). Specific binding was determined by subtracting the non-specific binding from total binding. […]

Experiment [4] has the same target. The experiment in a line: saturation radioligand binding on A431 epidermoid carcinoma cells. Here is the method: The plates were incubated at 37° C. for 1 h. Following incubation, media was aspirated from each well and discarded. The cells were washed and 100 µl of binding buffer (total binding) or 4 µM cold-antibody (non-specific binding) added to designated wells. Plates were incubated at 4° C. for 1 h with mild shaking. Following the blocking step, 100 µl of labeled conjugate was added to each well. The plates were then incubated at 4° C. for 2 h. Following incubation, the contents of each well was aspirated and discarded. The cells were washed twice with PBS and were then lysed with 1% Triton-X-100. The lysates were transferred to counting tubes and run with labeled conjugate standards on the Wizard 1470 gamma counter to determine the radioactivity content (in counts per minute (CPM)) for each lysate. The remaining lysate from each well (25 µl) was transferred to a 96-well plate, and the protein content of each lysate determined using a standard protein quantification assay. Total, non-specific and specific ligand binding determinations, mass of bound conjugate in each lysate were calculated by converting lysate CPM to fmol bound using the specific activity of the conjugate standards and then normalizing the fmol bound to the protein content of each lysate (in milligrams). Specific binding was determined by subtracting the non-specific binding from total binding. […]

Experiment [5] shares this target. Kind of experiment: saturation radioligand binding on MiaPaca-II cells (pancreatic). Here is the method:
(§1) Twenty-four hours prior to the start of the experiment, 1.5 ×10^5 cells were seeded in 48-well microplates in 500 µl supplemented medium. The radiolabeled conjugate was diluted with binding buffer (PBS+0.5% BSA) to a range of concentrations from 0.08 nM to 40 nM; final assay concentration 0.04 to 20 nM. At the start of the assay, the media is aspirated, discarded and 500 µl of serum-free DMEM was added to each well. The plates were incubated at 37° C. for 1 h. Following incubation, media was aspirated from each well and discarded. The cells were washed and 100 µl of binding buffer (total binding) or 4 µM cold-antibody (non-specific binding) added to designated wells. […] The lysates were transferred to counting tubes and run with labeled conjugate standards on the Wizard 1470 gamma counter to determine the radioactivity content (in counts per minute (CPM)) for each lysate. The remaining lysate from each well (25 µl) was transferred to a 96-well plate, and the protein content of each lysate determined using a standard protein quantification assay. Total, non-specific and specific ligand binding determinations, mass of bound conjugate in each lysate were calculated by converting lysate CPM to fmol bound using the specific activity of the conjugate standards and then normalizing the fmol bound to the protein content of each lysate (in milligrams). […]

The target is the same in experiment [6]. The experiment in a line: saturation radioligand binding on BxPC3 cells (pancreatic). As for the experimental part: as §1
Experiment [7] shares this target. Kind of experiment: saturation radioligand binding on A549 cells (NSCLC). Here is the method:
as §1

Experiment [8] has the same target. The experiment in a line: saturation radioligand binding on LnCaP cells (prostate). As for the experimental part:
as §1

Experiment [9] has the same target. Kind of experiment: saturation radioligand binding on PC-3 cells (prostate). As for the experimental part: as §1
Experiment [10] shares this target. The experiment in a line: saturation radioligand binding on A431 cells (epidermoid carcinoma). Here is the method:
as §1

Experiment [11] has the same target. The experiment in a line: saturation radioligand binding on H226 cells (NSCLC). As for the experimental part: as §1
For experiment [12] the target is unchanged. Kind of experiment: saturation radioligand binding on Du-145 cells (prostate). As for the experimental part:
as §1

T1 sequence (P08069 31-1367): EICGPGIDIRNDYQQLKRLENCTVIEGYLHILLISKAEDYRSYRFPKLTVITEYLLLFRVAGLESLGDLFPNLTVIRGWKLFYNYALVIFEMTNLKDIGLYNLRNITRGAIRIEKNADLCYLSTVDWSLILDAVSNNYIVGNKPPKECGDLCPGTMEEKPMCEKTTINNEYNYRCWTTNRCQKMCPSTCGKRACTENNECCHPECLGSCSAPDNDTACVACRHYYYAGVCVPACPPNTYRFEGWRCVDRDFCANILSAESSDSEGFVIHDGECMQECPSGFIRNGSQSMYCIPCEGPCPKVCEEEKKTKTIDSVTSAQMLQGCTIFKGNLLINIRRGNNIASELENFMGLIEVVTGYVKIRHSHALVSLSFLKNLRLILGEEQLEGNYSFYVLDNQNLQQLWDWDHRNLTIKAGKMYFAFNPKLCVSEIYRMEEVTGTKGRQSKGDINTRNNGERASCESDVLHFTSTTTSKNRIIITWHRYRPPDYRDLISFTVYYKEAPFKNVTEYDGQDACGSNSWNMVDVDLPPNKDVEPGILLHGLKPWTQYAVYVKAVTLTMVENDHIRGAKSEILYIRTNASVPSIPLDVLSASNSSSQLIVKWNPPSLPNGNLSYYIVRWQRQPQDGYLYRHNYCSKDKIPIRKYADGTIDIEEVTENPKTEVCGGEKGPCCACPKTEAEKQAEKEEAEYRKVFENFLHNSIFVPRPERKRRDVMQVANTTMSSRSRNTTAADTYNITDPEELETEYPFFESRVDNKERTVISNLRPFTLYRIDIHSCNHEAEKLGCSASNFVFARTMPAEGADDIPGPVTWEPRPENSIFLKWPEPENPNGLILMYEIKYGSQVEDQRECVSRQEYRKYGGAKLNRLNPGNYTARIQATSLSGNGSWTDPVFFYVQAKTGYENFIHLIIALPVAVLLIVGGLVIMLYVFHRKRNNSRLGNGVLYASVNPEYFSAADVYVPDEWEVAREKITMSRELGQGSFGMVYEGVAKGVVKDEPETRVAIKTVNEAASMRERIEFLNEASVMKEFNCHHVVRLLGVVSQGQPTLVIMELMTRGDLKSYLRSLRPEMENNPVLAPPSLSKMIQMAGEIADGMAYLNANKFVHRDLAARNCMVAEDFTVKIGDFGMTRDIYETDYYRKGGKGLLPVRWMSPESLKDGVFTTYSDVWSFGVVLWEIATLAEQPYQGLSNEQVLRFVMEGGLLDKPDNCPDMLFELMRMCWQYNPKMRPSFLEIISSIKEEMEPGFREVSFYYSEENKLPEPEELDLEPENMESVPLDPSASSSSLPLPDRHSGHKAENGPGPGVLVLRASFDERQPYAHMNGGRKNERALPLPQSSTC

B1: HuMIGF-1R (AVE1642) (antibody, human IgG1, kappa)
light: DVVMTQTPLSLPVSLGDPASISCRSSQSIVHSNVNTYLEWYLQKPGQSPRLLIYKVSNRFSGVPDRFSGSGAGTDFTLRISRVEAEDLGIYYCFQGSHVPPTFGGGTKLEIKRTVAAPSVFIFPPSDEQLKSGTASVVCLLNNFYPREAKVQWKVDNALQSGNSQESVTEQDSKDSTYSLSSTLTLSKADYEKHKVYACEVTHQGLSSPVTKSFNRGEC
heavy: not shown
As to B1, in [1], the “Conjugate Potency (IC50; µg/mL): inhibition of IGF-1 ligand stimulated autophosphorylation of IGF-1R in A431 cells, phospho-IGF-1R ELISA; degree of substitution 0 DOTA/mAb (native antibody)” value worked out at 0.04 µg/mL. Moreover, the “Compound Potency (IC50; µg/mL): inhibition of IGF-1 ligand stimulated autophosphorylation of IGF-1R in A431 cells, phospho-IGF-1R ELISA” value in experiment [2] came to 0.04 µg/mL.

B2: [^177Lu]-Compound A-HuMIGF-1R (antibody)
light: DVVMTQTPLSLPVSLGDPASISCRSSQSIVHSNVNTYLEWYLQKPGQSPRLLIYKVSNRFSGVPDRFSGSGAGTDFTLRISRVEAEDLGIYYCFQGSHVPPTFGGGTKLEIKRTVAAPSVFIFPPSDEQLKSGTASVVCLLNNFYPREAKVQWKVDNALQSGNSQESVTEQDSKDSTYSLSSTLTLSKADYEKHKVYACEVTHQGLSSPVTKSFNRGEC
heavy: not shown
modifications: Compound A (DOTA-GA anhydride) chelate conjugated to the antibody, sites not stated; chelate loaded with 177Lu
notes: also called Commercial Standard
In [3], B2 showed an equilibrium dissociation constant (Kd) of 2.9 nM.

B3: [^111In]-Compound C-HuMIGF-1R (antibody)
light: DVVMTQTPLSLPVSLGDPASISCRSSQSIVHSNVNTYLEWYLQKPGQSPRLLIYKVSNRFSGVPDRFSGSGAGTDFTLRISRVEAEDLGIYYCFQGSHVPPTFGGGTKLEIKRTVAAPSVFIFPPSDEQLKSGTASVVCLLNNFYPREAKVQWKVDNALQSGNSQESVTEQDSKDSTYSLSSTLTLSKADYEKHKVYACEVTHQGLSSPVTKSFNRGEC
heavy: not shown
modifications: Compound C (DOTA-GA with PEG3 linker, TFP ester) conjugated to the antibody, sites not stated; chelate loaded with 111In
As for B3, binding in experiment [4] was put at a Kd of 6.9 nM. Also, in experiment [2], the “Compound Potency (IC50; µg/mL): inhibition of IGF-1 ligand stimulated autophosphorylation of IGF-1R in A431 cells, phospho-IGF-1R ELISA” value amounted to 0.19 µg/mL.

B4: [^177Lu]-Compound C-HuMIGF-1R (antibody)
light: DVVMTQTPLSLPVSLGDPASISCRSSQSIVHSNVNTYLEWYLQKPGQSPRLLIYKVSNRFSGVPDRFSGSGAGTDFTLRISRVEAEDLGIYYCFQGSHVPPTFGGGTKLEIKRTVAAPSVFIFPPSDEQLKSGTASVVCLLNNFYPREAKVQWKVDNALQSGNSQESVTEQDSKDSTYSLSSTLTLSKADYEKHKVYACEVTHQGLSSPVTKSFNRGEC
heavy: not shown
modifications: Compound C (DOTA-GA with PEG3 linker, TFP ester) conjugated to the antibody, sites not stated; chelate loaded with 177Lu
Regarding B4, the dissociation constant Kd in experiment [5] stood at 1.9 nM; in [6] it was 2.9 nM; in experiment [7], 0.7 nM; in [8] it was 1.6 nM; in [9], 1.7 nM; in experiment [3], 2.2 nM. The Kd in experiment [10] was 2.2 nM; in [11], 2.3 nM; in experiment [12], 3 nM. The “Compound Potency (IC50; µg/mL): inhibition of IGF-1 ligand stimulated autophosphorylation of IGF-1R in A431 cells, phospho-IGF-1R ELISA” value in experiment [2] came to 0.04 µg/mL.

B5: [^177Lu]-Compound B-HuMIGF-1R (antibody)
light: DVVMTQTPLSLPVSLGDPASISCRSSQSIVHSNVNTYLEWYLQKPGQSPRLLIYKVSNRFSGVPDRFSGSGAGTDFTLRISRVEAEDLGIYYCFQGSHVPPTFGGGTKLEIKRTVAAPSVFIFPPSDEQLKSGTASVVCLLNNFYPREAKVQWKVDNALQSGNSQESVTEQDSKDSTYSLSSTLTLSKADYEKHKVYACEVTHQGLSSPVTKSFNRGEC
heavy: not shown
modifications: Compound B (DOTA-GA with undecanoyl linker, TFP ester) conjugated to the antibody, sites not stated; chelate loaded with 177Lu
For B5, the affinity in experiment [3], expressed as Kd, was 2 nM. This lies in the single-digit nanomolar range.

As usually defined, the Kd is the free concentration of one partner at which half of the binding sites on the other are occupied at equilibrium, for simple one-to-one binding. A lower Kd goes with higher affinity.
